US20150118747A1, “ELECTROSTRETCHED POLYMER MICROFIBERS FOR MICROVASCULATURE DEVELOPMENT” (The Johns Hopkins University, priority 2013, published 2015)

B1: plasmin: plasmin from human plasma (Athens Research and Technology), enzyme that degrades fibrin (protein, UniProt P00747 20-580; P00747 581-810, looked up)
Plasmin heavy chain A: EPLDDYVNTQGASLFSVTKKQLGAGSIEECAAKCEEDEEFTCRAFQYHSKEQQCVIMAENRKSSIIIRMRDVVLFEKKVYLSECKTGNGKNYRGTMSKTKNGITCQKWSSTSPHRPRFSPATHPSEGLEENYCRNPDNDPQGPWCYTTDPEKRYDYCDILECEEECMHCSGENYDGKISKTMSGLECQAWDSQSPHAHGYIPSKFPNKNLKKNYCRNPDRELRPWCFTTDPNKRWELCDIPRCTTPPPSSGPTYQCLKGTGENYRGNVAVTVSGHTCQHWSAQTPHTHNRTPENFPCKNLDENYCRNPDGKRAPWCHTTNSQVRWEYCKIPSCDSSPVSTEQLAPTAPPELTPVVQDCYHGDGQSYRGTSSTTTTGKKCQSWSSMTPHRHQKTPENYPNAGLTMNYCRNPDADKGPWCFTTDPSVRWEYCNLKKCSGTEASVVAPPPVVLLPDVETPSEEDCMFGNGKGYRGKRATTVTGTPCQDWAAQEPHRHSIFTPETNPRAGLEKNYCRNPDGDVGGPWCYTTNPRKLYDYCDVPQCAAPSFDCGKPQVEPKKCPGR
Plasmin light chain B: VVGGCVAHPHSWPWQVSLRTRFGMHFCGGTLISPEWVLTAAHCLEKSPRPSSYKVILGAHQEVNLEPHVQEIEVSRLFLEPTRKDIALLKLSSPAVITDKVIPACLPSPNYVVADRTECFITGWGETQGTFGAGLLKEAQLPVIENKVCNRYEFLNGRVQSTELCAGHLAGGTDSCQGDSGGPLVCFEKDKYILQGVTSWGLGCARPNKPGVYVRVSRFVTWIEGVMRNN
modifications: plasmin
notes: plasmin from human plasma (Athens Research and Technology), enzyme that degrades fibrin

Experiments:
ECFCs [1] = test: Actin and microtubule disruption studies, ECFCs on fibrin microfibers; format: cell-based, Human; conditions: for actin and microtubule organization, respectively / wrapping organization of the deposited ECM molecules compared to control cultures: ECFCs seeded on nanopatterned fibrin microfibers; for average angle of ECM orientation or variance of all angles, vs no drug: drug added 24 h after ECFC seeding on fibrin microfibers, 24 and 48 hrs of treatment
Protocol: The cell areas and perimeters were measured by fitting an ellipse to each cell using the LSM 510 software. Cytoskeletal alignment angle was calculated by measuring the angle between the long axis of each ellipse and the longitudinal axis of the microfiber, found by drawing a line at the edges of the microfiber in its image projection. ECM angle of orientation was measured using the LSM 510 software by drawing a line following the ECM deposition and finding the angle between the line and the longitudinal axis of the microfiber. Graphs were plotted with 5-95% confidence intervals. Unpaired two-tailed Welch-corrected t-tests were performed where appropriate (GraphPad Prism® 5.01, GraphPad Software, San Diego, Calif.). Significance levels were determined between samples examined and were set at *p<0.05, **p<0.01, and ***p<0.001.
Cytochalasin D or nocodazole were dissolved in DMSO (Table 1). ECFCs were cultured on Petri dishes (control) or fibrin microfibers in ECFC media with 50 ng/mL of VEGF (Pierce, Rockford, Ill., USA) supplemented with either […] cytochalasin D or […] nocodazole, from either day 0 or day 1 after seeding. F-actin or a-tubulin organization and ECM deposition was analyzed after 1, 2, or 3 days of treatment. Final concentration of DMSO in cell culture medium was kept at 0.1% (v/v). Controls were treated with DMSO alone at the same concentration.

fibrin microfibers = test: Plasmin treatment: degradation of fibrin microfibers without cells; format: biochemical; conditions: serum-free media
Protocol: (§1) Fibrin microfibers with or without cells were treated with 15, 1, 0.25, and 0.1 CU/mL plasmin from human plasma (Athens Research and Technology, Athens, Ga.) in DMEM (Life Technologies, Grand Island, N.Y.) for 1, 6, 12, and 24 hrs respectively in a humidified incubator at 37° C. in a 5% CO2 atmosphere. Samples were imaged immediately after treatment.
The fibrin microfiber core was degraded after endothelial cell (EC) layer formation while maintaining both cellular viability and intact ECM organization. Fibrin microfibers without cells were treated with different concentrations of plasmin.

ECFCs [2] = test: Live/Dead assay of ECFCs after plasmin treatment; format: cell-based; conditions: for cell viability: confluent ECFCs, data not shown; for live cells: confluent ECFCs in 2D, serum-free
Protocol: as §1
ECFCs cultured in 2D and treated with plasmin were incubated with 2 μM calcein AM and 4 μM ethidium homodimer (Invitrogen) in PBS for 30 min at 37° C. and 5% CO2. Samples were imaged immediately after and the number of live and dead cells was counted using ImageJ (NIH, Bethesda, Md.).

Molecule | actin and microtubule organization, respectively (ECFCs [1]) | wrapping organization of the deposited ECM molecules compared to control cultures (ECFCs [1]) | average angle of ECM orientation or variance of all angles, vs no drug (ECFCs [1]) | time in which plasmin degraded the microfibers (fibrin microfibers; 0.1 CU/mL plasmin) | time in which plasmin degraded the microfibers (fibrin microfibers; 0.25 CU/mL plasmin) | time in which plasmin degraded the microfibers (fibrin microfibers; 1 CU/mL plasmin) | time in which plasmin degraded the microfibers (fibrin microfibers; 15 CU/mL plasmin) | cell viability (ECFCs [2]; 1 hr treatment (15 CU/mL plasmin)) | cell viability (ECFCs [2]; 6 hr treatment (1 CU/mL plasmin)) | live cells (ECFCs [2]; 12 hr treatment (0.25 CU/mL plasmin)) | live cells (ECFCs [2]; 24 hr treatment (0.1 CU/mL plasmin))
C=C1[C@@H](C)[C@H]2[C@H](Cc3ccccc3)NC(=O)[C@]23[C@H](OC(C)=O)/C=C/[C@@](C)(O)C(=O)[C@@H](C)C/C=C/[C@H]3[C@@H]1O [Cytochalasin D] | effectively altered | did not alter | No difference | – | – | – | – | – | – | – | –
COC(=O)Nc1nc2ccc(C(=O)c3cccs3)cc2[nH]1 [nocodazole] | effectively altered | did not alter | no difference | – | – | – | – | – | – | – | –
B1 | – | – | – | ~24 h | ~12 h | ~6 h | about 1 hrs | poor cell viability | poor cell viability | 80.6±4.3% | 65.2±1.8%
